We go through 1 substance from paper PMC5428533.

Experiment [1] has as its target complement component C9 (human) (UniProt P02748). As to the kind of experiment: MST; FH (6.67 µM) or C9 (15.15 µM) labelled with NT-647 RED-NHS; non-labelled CbiA diluted 1:2 from 76 to 0.0002 µM; fluid phase, 20% LED power, 80% MST power, 30 s, Monolith NT.115, room temperature, triplicate.
For experiment [2], the target named is complement regulator Factor H (FH) (human) (UniProt P08603). The description is as above.
UniProt P08603, sequence (P08603 19-1231): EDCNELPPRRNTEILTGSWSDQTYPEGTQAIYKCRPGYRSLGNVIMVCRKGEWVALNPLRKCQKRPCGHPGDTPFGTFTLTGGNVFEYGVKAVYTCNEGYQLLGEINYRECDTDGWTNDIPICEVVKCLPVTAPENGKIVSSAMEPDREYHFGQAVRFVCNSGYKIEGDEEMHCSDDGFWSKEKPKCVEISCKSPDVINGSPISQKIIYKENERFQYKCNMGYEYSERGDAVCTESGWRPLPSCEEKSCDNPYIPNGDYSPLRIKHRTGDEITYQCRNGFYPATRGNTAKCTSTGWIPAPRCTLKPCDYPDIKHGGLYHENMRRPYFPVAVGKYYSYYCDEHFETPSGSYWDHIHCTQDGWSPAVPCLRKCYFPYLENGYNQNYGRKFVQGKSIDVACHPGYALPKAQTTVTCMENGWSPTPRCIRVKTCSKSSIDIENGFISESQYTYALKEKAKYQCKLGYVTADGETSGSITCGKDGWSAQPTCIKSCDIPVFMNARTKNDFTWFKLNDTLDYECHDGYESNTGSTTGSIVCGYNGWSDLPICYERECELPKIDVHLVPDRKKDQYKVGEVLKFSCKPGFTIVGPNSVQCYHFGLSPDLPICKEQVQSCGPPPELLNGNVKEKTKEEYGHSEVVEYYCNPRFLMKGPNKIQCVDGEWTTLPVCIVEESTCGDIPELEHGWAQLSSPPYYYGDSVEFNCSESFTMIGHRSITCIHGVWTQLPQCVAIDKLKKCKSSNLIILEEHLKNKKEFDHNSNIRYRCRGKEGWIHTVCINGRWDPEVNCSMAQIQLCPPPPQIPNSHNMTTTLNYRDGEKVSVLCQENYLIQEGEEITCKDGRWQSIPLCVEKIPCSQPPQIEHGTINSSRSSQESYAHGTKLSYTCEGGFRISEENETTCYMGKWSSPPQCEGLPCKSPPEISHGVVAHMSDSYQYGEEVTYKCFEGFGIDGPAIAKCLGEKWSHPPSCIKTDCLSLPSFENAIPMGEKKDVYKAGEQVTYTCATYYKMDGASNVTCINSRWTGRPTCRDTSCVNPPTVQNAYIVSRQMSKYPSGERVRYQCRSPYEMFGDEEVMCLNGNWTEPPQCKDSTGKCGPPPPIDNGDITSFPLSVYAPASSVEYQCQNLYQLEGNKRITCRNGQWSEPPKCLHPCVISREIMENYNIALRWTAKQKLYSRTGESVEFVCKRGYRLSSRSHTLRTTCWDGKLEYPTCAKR

pKd: −log10 of the molar value.

UniProt P02748, sequence (P02748 22-559): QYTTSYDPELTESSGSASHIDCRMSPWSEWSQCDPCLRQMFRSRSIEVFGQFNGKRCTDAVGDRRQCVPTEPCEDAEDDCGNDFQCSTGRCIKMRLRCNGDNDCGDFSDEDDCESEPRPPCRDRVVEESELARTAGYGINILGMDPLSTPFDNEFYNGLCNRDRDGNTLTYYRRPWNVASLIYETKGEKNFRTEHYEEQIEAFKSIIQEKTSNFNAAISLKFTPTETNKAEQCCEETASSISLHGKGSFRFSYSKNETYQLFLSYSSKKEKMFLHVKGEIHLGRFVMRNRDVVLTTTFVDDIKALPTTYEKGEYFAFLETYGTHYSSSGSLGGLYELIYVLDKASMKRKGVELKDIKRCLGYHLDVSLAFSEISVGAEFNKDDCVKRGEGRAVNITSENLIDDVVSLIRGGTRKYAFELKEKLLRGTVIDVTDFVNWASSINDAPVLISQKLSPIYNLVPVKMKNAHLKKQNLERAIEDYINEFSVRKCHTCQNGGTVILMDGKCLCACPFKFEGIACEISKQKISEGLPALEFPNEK

In the case of “CbiA (complement binding and inhibitory protein A) of B. miyamotoi HT31, His6-tagged recombinant protein (natural protein)”, the pKd in experiment [1] is 7.28; in experiment [2], 5.18.
